This is an account of results in patent US20170224778A1, “COMPOSITIONS AND METHODS THAT TARGET REGULATION OF BREATHING” (The Board of Trustees of the Leland Stanford Junior …, priority 2016, published 2017).

For experiment [1], the target named is gastrin-releasing peptide receptor (GRPR) on rat preBotC neurons (rat) (UniProt P52500).
For experiment [2], the target named is neuromedin B receptor (NMBR) on rat preBotC neurons (rat) (UniProt P24053).
Experiment [3] shares this target. The source holds these as a separate data set.
The target of experiment [4] is gastrin-releasing peptide receptor (GRPR) on rat preBotC neurons (rat) (UniProt P52500). This is another data set of the same source.
The target of experiment [5] is neuromedin B receptor (NMBR) on rat preBotC neurons (rat) (UniProt P24053). This is another data set of the same source.
For experiment [6], the target named is gastrin-releasing peptide receptor (GRPR) on rat preBotC neurons (rat) (UniProt P52500). This is another data set of the same source.
The target of experiment [7] is gastrin-releasing peptide receptor (GRPR) on mouse preBotC neurons (mouse) (UniProt P21729).
Experiment [8] deals with neuromedin B receptor (NMBR) on mouse preBotC neurons (mouse) (UniProt O54799).
Experiment [9] concerns the target T1, NMBR (Rattus norvegicus, UniProt P24053).
T1 construct: from tissue; host or cells: preBötC of the ventral medulla of living anesthetized Sprague Dawley rats
T1 sequence (P24053 1-390): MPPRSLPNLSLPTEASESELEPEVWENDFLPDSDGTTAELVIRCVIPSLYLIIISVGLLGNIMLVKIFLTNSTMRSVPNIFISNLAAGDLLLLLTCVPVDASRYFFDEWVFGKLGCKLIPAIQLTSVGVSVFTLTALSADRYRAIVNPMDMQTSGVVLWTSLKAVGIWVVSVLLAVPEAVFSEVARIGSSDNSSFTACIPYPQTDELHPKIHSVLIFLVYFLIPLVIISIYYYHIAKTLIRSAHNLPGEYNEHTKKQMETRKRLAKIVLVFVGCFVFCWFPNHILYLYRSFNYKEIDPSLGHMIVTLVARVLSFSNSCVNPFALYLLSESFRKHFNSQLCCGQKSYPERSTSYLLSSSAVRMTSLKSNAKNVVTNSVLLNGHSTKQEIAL
Put plainly: Sighing and breathing of urethane-anesthetized rats after bilateral preBötC injection (NMB pathway). It counts as in vivo. The settings on record: 3 μM into preBötC. On the procedure:
Sigh monitoring and analysis. For awake animals, individual animals were placed in a whole body plethysmography chamber (Buxco) at room temperature (22° C.) in 21% O2 (for normoxia) or 8% O2 (for hypoxic challenge) balanced with N2. Sighs were identified in plethysmography traces by the characteristic biphasic ramp, the augmented flow in the second phase of the inspiratory effort and the prolongation of expiratory time following the event. Sighs were also confirmed by visual monitoring of breathing behavior. Given the high amplitude and distinctive waveform of sighs relative to standard eupneic breaths, sighs were unambiguously identified by both visual and computer-assisted scoring; no difference was detected in direct comparisons between methods or observers so visual scoring was used. Female 8 week old mice (Nmbr^−/−, Grpr^−/−, or C57BL/6 as wild type control) were allowed to acclimate for 10 minutes in the chamber, and then the first fifteen recorded sighs were used to calculate the sigh rate. […] Rats were allowed to acclimate in the chamber for ˜1 hr, and then baseline sigh rate and respiratory frequency were calculated for the next 2 hrs. For hypoxic (8% O2) challenge, analysis was continued for 30 minutes under the hypoxic condition. For anesthetized rats, the trachea was cannulated and connected to a pneumotachograph (GM Instruments) to record airflow. A flow calibration was performed after every experiment along with a calculation of tidal volume (VT) by digital integration. To monitor diaphragm activity, wire electrodes (Cooner Wre) were implanted into the diaphragm and electromyogram (EMG) signal sampled at 2 kHz (Powerlab 16SP; AD Instruments). Signal was rectified and digitally integrated (time constant of 0.1) to obtain a moving average using LabChart Pro 8 (AD Instruments) and Igor Pro 6 (Data Matrix) software. Sighs were identified in the airflow measurements as above and validated by double peaks in the EMG recordings.
PreBötC injection of NMB and GRP agonists and antagonists. […]

The target of experiment [10] is T2, NMBR (Mus musculus, UniProt O54799).
T2 construct: from tissue; host or cells: 550-μm transverse medullary slices with the preBötC, neonatal C57BL/6 mice (P0-5)
T2 sequence (O54799 1-390): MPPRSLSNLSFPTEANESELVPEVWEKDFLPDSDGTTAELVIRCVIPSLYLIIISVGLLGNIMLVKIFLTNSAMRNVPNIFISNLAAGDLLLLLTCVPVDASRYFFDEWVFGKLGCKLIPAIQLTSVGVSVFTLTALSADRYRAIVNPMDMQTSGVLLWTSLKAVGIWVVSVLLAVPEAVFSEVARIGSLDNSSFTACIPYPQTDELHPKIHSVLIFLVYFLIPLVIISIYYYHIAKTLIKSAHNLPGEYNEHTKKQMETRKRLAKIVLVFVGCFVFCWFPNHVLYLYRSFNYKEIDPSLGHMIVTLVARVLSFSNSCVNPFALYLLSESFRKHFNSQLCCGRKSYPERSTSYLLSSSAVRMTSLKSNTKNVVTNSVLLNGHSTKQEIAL
In words: Doublets (in vitro sigh signature) in explanted preBötC brain slices, NMB effect. The settings on record: for doublet frequency increase: neonatal mouse preBötC slices. The format is cell-based. On the procedure: In vitro slice preparation, recording, and analysis. Rhythmic 550-μm-thick transverse medullary slices containing the preBötC and XII nerve from neonatal C57BL/6 mice (P0-5) were prepared as described previously (Kam et al., 2013). The medullary slice was cut in artificial cerebrospinal fluid (ACSF) containing (in mM): 124 NaCl, 3 KCl, 1.5 CaCl2, 1 MgSO4, 25 NaHCO3, 0.5 NaH2PO4, and 30 D-glucose, equilibrated with 95% O2 and 5% CO2 (4° C., pH=7.4). For recording, extracellular K+ was raised to 9 mM to replace excitatory afferent drive lost in the cutting process. Slices were perfused at 27° C. and 4 ml/min and allowed to equilibrate for 30 minutes. Respiratory activity reflecting suprathreshold action potential (AP) firing from populations of neurons was recorded as XII bursts from either XII nerve roots and as population activity directly from the preBötC using suction electrodes and a MultiClamp 700A or 700B (Molecular Devices, Sunnyvale, Calif., USA), filtered at 2-4 kHz and digitized at 10 kHz. Digitized data were analyzed off-line using custom procedures written for IgorPro (Wavemetrics, Portland, Oreg., USA). Activity was full-wave rectified and digitally integrated with a Paynter filter with a time constant of 20 ms with either custom built electronics or using custom procedures in MATLAB (Mathworks, Natick, Mass., USA). Burst detection and analysis of respiratory-related activity recorded in full-wave rectified XII output or preBötC population recordings were performed using custom software written in IgorPro. Burst parameters were normalized to the mode of the data in the baseline condition. Although there are several proposed definitions of sighs in slice preparations, here we used “doublets” (double-peaked bursts) as the in vitro signature of sighs because, in our preparations, doublets detected both in preBötC neural population activity measurements and cranial nerve XII output recordings shared the increased inspiratory and expiratory duration of sighs. […] All doublets were verified by visual inspection to exclude multipeaked bursts and two bursts that were too far apart. Measured doublet intervals were converted to a calculated per hour doublet rate.

Substance GRPR antagonist RC3095 returned a basal sigh rate after bilateral preBotC injection in anesthetized rats in experiment [1] of 50%.
For the substance NMBR antagonist BIM23042, the basal sigh rate after bilateral preBotC injection in anesthetized rats in experiment [2] is 50%.
Regarding “bombesin-saporin (saporin conjugated with bombesin)”, the basal sigh rate after ablation of receptor-expressing preBotC neurons in rats in [3] and in experiment [4] was 95% each time. Further, the hypoxia-induced sigh rate (8% O2) five days after injection in rats in [5] and in [6] was 5.1 h⁻¹ each time.
On to “gastrin releasing peptide (GRP) neuropeptide”, for which the doublets (in vitro signature of a sigh) in mouse preBotC slices in [7] was 1.7 fold.
Substance neuromedin B (NMB) neuropeptide displayed a doublet frequency (in vitro signature of a sigh) in mouse preBotC slices in experiment [8] of 2 fold.
On to neuromedin B [NMB], for which the “change in respiratory rate (frequency, f)” value in experiment [9] (bilateral NMB injection 100 nl, anesthetized rat) is recorded as “little change”. Further, in experiment [9] (bilateral microinjection 100 nl, anesthetized adult rats, n=5), the “sighing increased (fold)” value was 6-17 fold. Also, the “effect on sighing persisted after injection” value in experiment [9] (bilateral microinjection 100 nl, effect peaked several minutes after injection) fell in the range of 10 to 15 min. Also, in [10] (10 nM, p=0.005, n=7), the doublet frequency increase is recorded as 1.7 fold. The same substance had a doublet frequency increase in experiment [10] (30 nM, p=0.003, n=7) of 2 fold. In experiment [10] (NMB on preBötC slices, p=0.2, n=7), the “overall frequency of bursts and doublets together” value is recorded as “unchanged”. Besides, in [10] (preBötC slice, p<0.05, n=7), the “fraction of total events that are doublets” value is on record as “increasing” and the “interval following a doublet” value is “decreasing”.
For “saporin conjugated with a non-targeted peptide (blank SAP)”, the basal and hypoxia-induced sigh rate in control rats in [5] and in experiment [6] was 140 h⁻¹ throughout.
